The text below walks through data of PMC8279337.

The target in this assay is Adipose Triglyceride Lipase (UniProt Q96AD5).
Chain of UniProt Q96AD5 (Q96AD5 whole entry): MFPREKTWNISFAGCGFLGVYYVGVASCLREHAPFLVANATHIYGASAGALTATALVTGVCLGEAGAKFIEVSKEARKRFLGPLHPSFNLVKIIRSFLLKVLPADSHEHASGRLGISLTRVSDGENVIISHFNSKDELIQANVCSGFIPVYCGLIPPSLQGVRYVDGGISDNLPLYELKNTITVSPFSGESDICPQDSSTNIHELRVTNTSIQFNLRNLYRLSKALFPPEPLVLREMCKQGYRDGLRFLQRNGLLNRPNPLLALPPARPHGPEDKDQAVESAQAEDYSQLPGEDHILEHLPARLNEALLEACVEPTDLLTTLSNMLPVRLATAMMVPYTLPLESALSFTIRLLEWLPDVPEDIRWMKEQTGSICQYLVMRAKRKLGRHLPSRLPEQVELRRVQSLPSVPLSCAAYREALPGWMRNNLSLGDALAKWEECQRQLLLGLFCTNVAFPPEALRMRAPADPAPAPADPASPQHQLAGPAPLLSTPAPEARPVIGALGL

“MBP-G0S2 (full length G0S2 with N-terminal His6 and maltose-binding protein) (from UniProt Q61585 1-103) (natural protein)” showed a triglyceride hydrolase activity of the ATGL lysate on [9,10-3H]-triolein (DPM), 2 and 10 ug MBP-G0S2, compared with HisMBP; DPM smaller at 10 ug than at 2 ug of 60%.
